{
  "source": "patent US20080015165A1",
  "about": "“NOVEL POLYPEPTIDE” (KYOWA HAKKO KOGYO CO., LTD., priority 1998, published 2008)",
  "test": "In vitro α1,3-fucosyltransferase activity, COS-1 cell lysate, pyridylaminated substrate, HPLC",
  "type": "biochemical",
  "details": "activity of human Fuc-TVI for α2,3-sialylLNnT taken as 100; 25 μM substrate, 2 hours at 37° C.; normalized to transcript amount",
  "protocol": "Each α1,3-fucosyltransferase expression plasmid (15 μg) was introduced into 1×10^7 COS-1 cells.\nThis introduction was performed by electroporation method using a gene pulser (manufactured by Bio-Rad) according to the Bio-Rad's instructional manual attached thereto. At this time, 1 μg of a luciferase expression vector, which was constructed by inserting β-actin promoter into a Hind III site of a vector pSVOA/L [Experimental Medicine, 7, 96, (1989)] was co-introduced as an index of gene transfer efficiency.\nAfter the gene introduction, COS-1 cells were dispensed into three dishes for cell culture with a diameter of 15 cm and then cultured for 48 hours.\nThe cells in the remaining two dishes were collected, suspended in a solution (20 mM HEPES (pH 7.4), 2% TrironX-100), then ultrasonicated for a short time period, thereby preparing cell lysate. The protein concentration of the cell lysate was measured using a micro BCA protein assay reagent kit (manufactured by PIERCE).\nThe enzymatic activities of luciferase and α1,3-fucosyltransferase were measured using the cell lysate. […]\nEach of the substrates was allowed to react in assay solution with or without GDP-Fuc (sugar donator), then analyzed with HPLC. […]\nThe products were detected using a fluorescent spectrum photometer FP-920 (JASCO Corporation) at excitation wavelength of 320 nm and emission wavelength of 400 nm. […]",
  "data": [
    {"molecule": "Mouse Fuc-TIV: known mouse α1,3-fucosyltransferase expressed from pCDM8-mFT4 for comparison (protein, UniProt Q11127 1-433, looked up) Alpha-(1,3)-fucosyltransferase …: MAPARQELQHESRCRPSRTVDAWRAAVATRGRHMETPGYRRRTRCGGWGLPRSVSSLAAVGLLCTALTTFICWGQLPPLPWASPAPQRLVGVLLWWEPFRGRGGYPKSPPDCSLRFNISGCRLLTDRAAYGEAQAVLFHHRDLVKELHDWPPPWGARERTDKALVLRVFDDQEGAVTLTGKALETVGSRPPGQRWVWMNFESPSHTPGLRGLAKDLFNWTLSYRTDSDVFVPYGFLYSRSDPTEQPSGLGPQLARKRGLVAWVVSNWNEHQARVRYYHQLSRHVSVDVFGRTGPGRPVPAIGLLHTVARYKFYLAFENSRHVDYITEKLWRNAFLAGAVPVVLGPDRANYERFVPRGAFIHVDDFPNAASLAAYLLFLDRNVAVYRRYFRWRRSFAVHITSFWDEQWCRTCQAVQTSGDQPKSIHNLADWFQR", "values": [
      {"measurement": "Relative activity of α1,3-fucosyltransferases for substrate LNT", "result": 0}
    ]}
  ]
}
